Source: paper PMC7863392 (EMBO Molecular Medicine, 2020)

Key:
[1] = biological target: T1, PSMA in lysates of 22Rv1^high cells and of lung SCC tumor samples (Homo sapiens, UniProt Q04609-1); experiment: co-IP; immunoprecipitation of PSMA from 22Rv1^high cell lysate with chimeric antibody on protein G agarose beads; Western blot with murine J591; conditions: one partner purified
T1 construct: prostate-specific membrane antigen (PSMA; FOLH1), human, endogenous; also called FOLH1; source: endogenous, lysates of 22Rv1^high cells and of slices of lung squamous cell carcinoma tumors

[2] = biological target: T2, recombinant, His-tagged PSMA produced by transfected CHO cells (Homo sapiens, UniProt Q04609); experiment: SPR; chimeric antibodies immobilised on a Protein A coated sensor chip; His-tagged PSMA flowed; Biacore X, 25°C, 30 μl/min; conditions: both partners purified
T2 construct: prostate-specific membrane antigen (PSMA; FOLH1); probably the soluble extracellular part (surmised); source: transfected CHO cells
T2 sequence (Q04609 56-750): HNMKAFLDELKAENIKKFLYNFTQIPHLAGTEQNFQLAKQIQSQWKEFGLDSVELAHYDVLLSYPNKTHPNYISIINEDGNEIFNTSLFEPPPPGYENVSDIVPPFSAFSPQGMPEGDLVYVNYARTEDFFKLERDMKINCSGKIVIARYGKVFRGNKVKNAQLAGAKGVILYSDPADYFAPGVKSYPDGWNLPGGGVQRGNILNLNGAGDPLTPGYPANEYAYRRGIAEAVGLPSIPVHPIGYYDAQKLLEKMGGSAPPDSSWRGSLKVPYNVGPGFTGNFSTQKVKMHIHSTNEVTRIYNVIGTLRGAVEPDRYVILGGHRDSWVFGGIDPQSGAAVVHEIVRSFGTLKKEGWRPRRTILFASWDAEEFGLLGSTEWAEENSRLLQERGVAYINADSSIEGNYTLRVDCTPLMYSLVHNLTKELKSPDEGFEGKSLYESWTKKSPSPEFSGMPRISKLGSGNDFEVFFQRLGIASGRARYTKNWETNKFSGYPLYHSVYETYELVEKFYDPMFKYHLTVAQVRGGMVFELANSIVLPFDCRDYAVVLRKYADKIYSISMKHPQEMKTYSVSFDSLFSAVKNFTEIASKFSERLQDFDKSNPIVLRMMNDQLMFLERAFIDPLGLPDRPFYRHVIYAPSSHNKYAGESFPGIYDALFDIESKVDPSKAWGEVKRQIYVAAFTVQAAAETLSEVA

T1 sequence (Q04609 whole entry): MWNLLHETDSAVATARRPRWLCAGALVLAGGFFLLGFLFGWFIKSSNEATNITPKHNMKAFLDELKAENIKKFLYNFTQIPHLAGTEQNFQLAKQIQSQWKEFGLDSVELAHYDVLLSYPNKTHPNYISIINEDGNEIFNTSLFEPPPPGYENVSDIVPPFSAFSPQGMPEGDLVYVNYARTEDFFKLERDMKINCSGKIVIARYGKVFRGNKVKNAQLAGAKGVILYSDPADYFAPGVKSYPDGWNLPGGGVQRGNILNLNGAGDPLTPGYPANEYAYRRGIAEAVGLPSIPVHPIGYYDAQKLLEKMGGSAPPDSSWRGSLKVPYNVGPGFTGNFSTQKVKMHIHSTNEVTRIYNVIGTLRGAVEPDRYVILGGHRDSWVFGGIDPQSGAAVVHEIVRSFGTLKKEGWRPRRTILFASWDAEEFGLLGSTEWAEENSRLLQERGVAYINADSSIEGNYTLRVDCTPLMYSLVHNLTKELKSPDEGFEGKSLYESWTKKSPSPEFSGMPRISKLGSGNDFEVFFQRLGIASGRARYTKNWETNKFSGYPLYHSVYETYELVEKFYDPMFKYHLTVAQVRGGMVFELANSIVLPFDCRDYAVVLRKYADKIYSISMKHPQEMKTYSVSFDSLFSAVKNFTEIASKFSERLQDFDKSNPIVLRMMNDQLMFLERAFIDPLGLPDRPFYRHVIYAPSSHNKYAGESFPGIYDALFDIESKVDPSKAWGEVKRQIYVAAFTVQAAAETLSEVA

binding result [1]: binds | binding result [2]: binds
B1: chimeric J591 antibody (murine J591 variable regions fused to human constant regions) (antibody, V domains shown)
VH: EVQLQQSGPELVKPGTSVRISCKTSGYTFTEYTIHWVKQSHGKSLEWIGNINPNNGGTTYNQKFEDKATLTVDKSSSTAYMELRSLTSEDSAVYYCAAGWNFDYWGQGTTLTVSS
VL: DIVMTQSHKFMSTSVGDRVSIICKASQDVGTAVDWYQQKPGQSPKLLIYWASTRHTGVPDRFTGSGSGTDFTLAITNVQSEDLADYFCQQYNSYPLTFGAGTKLEIK
